Laboratory results published in patent US20120100207A1, “PROCESS FOR PRODUCING LIPOSOMES BY TWO-STEP EMULSIFICATION METHOD UTILIZING OUTER AQUEOUS PHASE CONTAINING SPECIFIC DISPERSING AGENT, PROCESS FOR PRODUCING LIPOSOME DISPERSION OR DRY POWDER THEREOF USING THE PROCESS FOR PRODUCING LIPOSOMES, AND LIPOSOME DISPERSION OR DRY POWDER THEREOF PRODUCED …” (KONICA MINOLTA HOLDINGS, INC., priority 2009, published 2012).

Key:
[1] = in an aqueous solvent; background statement; cited from earlier work
[2] = Volume mean particle diameter by dynamic light scattering particle size analyzer; type: physicochemical
Method: The volume mean particle diameter of liposomes in the examplesandthecomparativeexamplesdescribedbelowwasmeasured by the following method.
The W1/O emulsion was diluted with a chloroform/hexane mixed solvent (volume ratio: 4/6, the specific gravity was made equal to that of the inner aqueous phase) to 10 times, then a particle size distribution was measured with a dynamic light scattering nanotrack particle size analyzer (UPA-EX150, manufactured by Nikkiso Co., Ltd.), and based on this particle size distribution, a volume mean particle diameter was calculated.
As for the volume mean particle diameter of the specific dispersing agent which forms molecular aggregates, a liposome dispersion (also referred to as a “suspension” hereinafter) prepared in each of the following examples was subjected to the measurement as it was, using the same device. That is to say, a suspension of liposome particles prepared was diluted with a phosphoric acid buffer saline solution (PBS) to 25 times, then a particle size distribution was measured using a dynamic light scattering nanotrack particle size analyzer (UPA-EX150, manufactured by Nikkiso Co., Ltd.), and based on this particle size distribution, a volume mean particle diameter was calculated.

**Q.** For sodium caseinate, which “volume mean particle diameter of molecular aggregates (submicelles)” value [1] is on record?
**A.** about 15 nm

**Q.** And the “volume mean particle diameter of particles of associated molecular aggregates” value [1]?
**A.** 100 to 200 nm

**Q.** And the “particle size distribution of associated substance of molecular aggregates” value ([2]; solution containing only casein having a higher concentration)?
**A.** 150 nm

**Q.** And the “main particle size distribution (volume mean particle diameter)” value ([2]; solution containing only the dispersing agent)?
**A.** 15 nm
